Laboratory results published in publication PMC6248175.

Target: C3b (UniProt P01024)
Assay: microplate/western blot assay; protocol 1, formation step: C3b-coated wells; FB 1,000 ng/ml, FD 10 ng/ml, 10 mM MgCl2, 100 ug/ml control or patients' IgGs, 12 min at 25 C, without or with FH 2,640 ng/ml during formation; density of the Bb band with FH over that without FH

## factor H (from UniProt P08603 19-1231) (natural protein)
  ratio Bb band + FH / Bb band without FH (with FH-CSA+ C3NeF IgGs of patients): 0.58
  ratio Bb band + FH / Bb band without FH (with FH-CSA- C3NeF IgGs of patients): 0.32
  ratio Bb band + FH / Bb band without FH (with control IgGs): 0.32
